Test results: article PMC5427921 (2017)

Legend:
Experiment in all cases: ITC
PRL3 C49S = PRL3 C49S (human, UniProt O75365 1-169, C49S)
PRL3 L108A = PRL3 L108A (human, UniProt O75365 1-169, L108A)
PRL3 C104A = PRL3 C104A (human, UniProt O75365 1-169, C104A)
PRL3 C49A = PRL3 C49A (human, UniProt O75365 1-169, C49A)
[1] = target: PRL3 with the catalytic cysteine (Cys104) mutated to glutamic acid (human, UniProt O75365 1-169, Cys104 to glutamic acid)
PRL3 R138E = PRL3 R138E (human, UniProt O75365 1-169, R138E)
[2] = target: PRL3 with Arg138 mutated to alanine (human, UniProt O75365 1-169, Arg138 to alanine)
PRL3 C104S = PRL3 C104S (human, UniProt O75365 1-169, C104S)
PRL3 D72A = PRL3 D72A (human, UniProt O75365 1-169, D72A)
[3] = target: CBS-pair domain of human CNNM3 (GST tag removed) (human, UniProt Q8NE01 309-452)

Kd (PRL3 C49S) | Kd (PRL3 L108A) | Kd (PRL3 C104A) | Kd (PRL3 C49A) | Kd [1] | Kd (PRL3 R138E) | Kd [2] | Kd (PRL3 C104S) | Kd (PRL3 D72A) | Kd [3] | Binder
105 nM | 1700 nM | 180 nM | 72 nM | 2800 nM | 530 nM | 320 nM | 1400 nM | 215 nM | – | CNNM3 CBS-pair domain as a GST fusion (domain or fragment) LRCRTVEDVLTPLEDCFMLDASTVLDFGVLASIMQSGHTRIPVYEEERSNIVDMLYLKDLAFVDPEDCTPLSTITRFYNHPLHFVFNDTKLDAVLEEFKRGKSHLAIVQKVNNEGEGDPFYEVLGLVTLEDVIEEIIRSEILDE
– | – | – | – | – | – | – | – | – | 11 nM | PRL2 phosphatase (as used in ITC) (enzyme) MNRPAPVEISYENMRFLITHNPTNATLNKFTEELKKYGVTTLVRVCDATYDKAPVEKEGIHVLDWPFDDGAPPPNQIVDDWLNLLKTKFREEPGCCVAVHCVAGLGRAPVLVALALIECGMKYEDAVQFIRQKRRGAFNSKQLLYLEKYRPKMRLRFRDTNGHCCVQ
